According to the nanobody polyreactivity screen of Harvey et al. (2022):

Assay: yeast display, Sf9 membrane polyspecificity reagent, FACS + sequencing; frameworks hold sequencing errors
Summary of the method: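 Synthetic nanobody libraries on Saccharomyces cerevisiae BJ5465 were galactose-induced for 36–48 hours, stained 1 hour at 4 °C with 10% biotinylated, detergent-solubilized Sf9 membrane reagent and enriched on streptavidin microbeads. FACS then separated cells into low and high (top ~1%) gates by anti-HA (expression) and streptavidin (reagent binding) fluorescence. Genes were colony-PCR amplified, MiSeq 2 × 250 sequenced and CDR-length filtered. A clone's polyreactivity label is that of its gate of origin.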

Sequence	polyreactivity (PSR sort gate)
QVQLVESGGGLVQAGGSLRLSCAASGRTFKYYAMGWYRQAPGKERELVAGISSTGRTNYADSVKGRFTISRDNAKNTVYLQMNSLKPEDTAVYYCNAERKSFGKFDYWGQGTQVTVSS	high polyreactivity
QVQLVESGGGLVQAGGSLRLSCAASGRIFYYNAMGWYRQAPGKERELVAAITFDGGRTYYADSVKGRFTISRDNAKNTVYLQMNSLKPEDTAVYYCAASWYYSDFYMYYWGQGTQVTVSS	high polyreactivity
QVQLVESGGGLVQAGGSLSLSCAASGRNFYANTMGWYRQAPGKERELVASISYSSGSTYADSVKGRFTISRDNAKNTVYLQMNSLKPEDTAVYYCAARTYWYPRRPIYDYWGQGTQVTVSS	high polyreactivity
QVQLVESGGGLVQAGGSLRLSCAASGFTFWYYAMGWYRQAPGKERELVARITSRGADTYADSVKGRFTISRDNAKNTVYLQKNSLKPEDTAVYYCNAEFGRARDDDYWGQGTQVTVSS	low polyreactivity
QVQLVESGGGLVQAGGSLRLSCAASGSIVSTYAMGWYSQAPGKERELVAAITSTGSMNYADSVKGRFTISRDNAKNTVYLQMNSLKPEDTAVYYCAARYAGPSPTDTGHDYWGQGTQVTVSS	low polyreactivity
QVQLVESGGGLVQAGGSLRLSCAASGSIIVRNALGWYRQEPGTERELVAAISWGGGRTYYADSVKGRFTISRDNAKNTVYLQMNSLKPEDTAVYYCAAVHRAVQMGYWGQGTQVTVSS	high polyreactivity
QVQLVESGGGLVQAGGSLRLSCAASGSIFKINTMGWYRQAPGKERELVAAISKRGGSTYYADSVKGRFTISRDNAKNTVYLQMNSLKTEDTAVYYCAARQFYKYYYWGQGTQVTVSS	high polyreactivity
QVQLVESGGGLVQAGGRLRLSCAASGRIFVYYAMGWYRQAPGKERELVAAINAGGSTNYADSVKGRFTISRDNAKNTVYLQMNSLKPEDTAVYYCATDRYWWSGFDYWGQGTQVTVSS	high polyreactivity
QVQLVESGGGLVQAGGSLSLSCAASGNIVPSYVMGWYRQAPGKERELVAAITWNGGSTYYADSVKGRFTISRDNAKNTVYLQMNSLKPEDTAVYDCATSGPRLLRYYSSSSPSYDYWGQGTQVTVSS	low polyreactivity
QDQLVESGGGLFQAGGSLSLSCAASGNTFYWNAMGWYRQATGKEREFVAAISTTGVSTYYADSVKGRFTISRDNSKNTVYLQMNSLKPEDTAVYYCASEIIGYHTIYDYWGQGTQVTVSS	low polyreactivity
QVQLVESGGGLVQAGGSLRLSCAASVIIFYPYAMGWSRQAPGKEMELVAAITARSANTYYADSVKGRFTISRDNAKNTVYLQMNSLKPEDTAVYYCAAAIYSYRTPYYYWGQGTQVTVSS	high polyreactivity
QVQLVESGGGLVQAGGGLRLSCAASGRIFSRNVMGWYRQAPGKERELVAAISASGGSTYYADSVKGRFTISRDNAKNTVYLQMNSLKPEDTAVYYCAARRYPGRTATYYSWGQGTQVTVSS	high polyreactivity
QVQLVESGGGLVQAGGSLRLSCAGSGNIFSTYAMGWYRPAPGKVRELVASISENGGSTYYADSVKGRFTISRDNAKNTVYLQMNSLKPEDTAVYYCNADAYVYFDDGDYWGQGTQVTVSS	low polyreactivity
QVQLVESGGGLVQAGGSLRLSCAASGSIFRSYALGWYRQAPGKERELVAAITWSGGRTYYADSVKGRFTISRDNAKNTVYLQMNSLKPEDTAVYYCNADVWWDTWFLDGYDYWGQGTQVTVSS	high polyreactivity
QEQLQESGGGQVQAGGSLLLSCAASGNIIRYYYMGWYRQAPGKERELVAAITYGTSTNYADSVKGRFTISRDNAKNTVYLQMNSLKPEDTAVYYFAVDVNYGDPLDNWGQGTQVTVSC	high polyreactivity
QVQLVESGGGLVQAGGSLSLSCAASGSTFNRNAMGWDRQAPGKEREFVAAITWSGGSTYYADSVKGRFTISRDNAKNTVYLQMNSLKPEDTAVYYCNADRFSSRHSYDYWGQGTQVTVSS	low polyreactivity
QVQLLESGGGLVQAGGSLRLSCAASGIIFSSNAMGWYRKAPGKERELVAAITRRGGSTRYADSVKGRFTISRDNAKNTVYLQMNSLKPEDTAVYYCNALSGYPYRWGISYPMDYWGQGTQVTVSS	high polyreactivity
QVQLVESGGGLVQAGGSLRLSCAASGSIFGEYAMGWYRQAPGKERELVATISWSAGSTYYADSVKGRFTISRDYAKNTVYLQMNSLKPEDTAVYYCAAAYDGYYLSTFDSWGQGTQVTVSS	low polyreactivity
QVQLVESGGGLVQAGASLRLSCAASGRTFYQNGMGWYRQAPGKERELVAVISSGGNTDYADSVKGRFTMSRDNAKNTVYLQMNSLKPEDTAVYYCNADVRPAYTYDYWGQGTQVTVSS	low polyreactivity
QVQLVESGGGLVQAGGSLRLSCAASGLIFRPYDMGWYRQAPGKERELVAAISNGDSTNYADSVKGRFTISRDNAKNTVYLQMNSLKPEDTAVYYCAAEDYYIYREPYDYWGQGTQVTVSS	low polyreactivity
QVQLVESGGGLVQAGGSLRISCAASGSNFAYYAMGWYRQAPGKERELVAAITRGGRTYYADSVKGRFTISRDNAKNTVYLQMNSLKPEDTAVYYCNARNYTWYSSRFMRFDYWGLGTQVTVSS	high polyreactivity
QVQLVESGGGLVQAGGSLRLSCAASGITFLNYAMGWYRQATGKERELVAANDTRGGRTNYADSVKGRFTISRDNAKNTVYLQMNSVKPEDTEVYYCYALGYYVHKMDYWGQGTQVTVSS	low polyreactivity

Sequence	polyreactivity (PSR sort gate)
QVQLVESGGGLDQARGSLRLSCAASGLTFHRYAMGWYRQANGKERELVAAINYSGGRTYYADSVKGRFTISRDNAKNTVYLQMNSLKPEDTAVYYCNAVRYQKIFDYWGQGTQVTVSS	high polyreactivity
QVKLVESGGGLVQAGGSLRLSCAASGRTFLRYTMGWYRQAPGKEREFVAAISYDTSSTNYADSVKGRFTISRDNAKNNLYLQMNSLKPEDTAVYYCATGPYYGYDEFDYWGQGTQVTVSS	low polyreactivity
QVQLVESGGGLVQAGGSLRLSCAASGRIFGRNAMGWSRQAPGKERELVASITSGGSTNYADSVKGRFTISRYNAKNTVYLQMNSLKPEDTAVYYCNARWTGSYTSTGFRRRFDYWGQGTQVTVSS	high polyreactivity
QVQLVESGGGLVQAGGSLRLSCAASGRIFTGNVMGWYRQAPGKERELVAAITYRRGSTYYADSVKGRFTISRDNAKNTVYLQMNSLKPEDSAVYYCNTGWDPYGYDYWGQGTQVTVSS	low polyreactivity
QDQLVESGGGLDQAGGSLRLSCAASGRIFQKYAMACYRQAPGKERELVAAISSGDSTYADSVKGRFTISRDNAKNTVYLQMNSLKPEDTAVYYCAADSHYQEDFRIQYDYWGQGTQVTVSS	low polyreactivity
QVQLVESGGGLVQAGGSLRLSCAASGRILRGNAMGWYRQAPGKERELVADINYSDGSTYYADSVKGRFTISRDNAKNTVYLQMNSLKPEDTAVYYCAADLRITSYNSWGHGTQVTVSS	low polyreactivity
QVQIVESGGGLVQAGGSLSLSCAASGSILDQYAMGWYRQAPGKERELVAAITAIGDSTYYADSLKGRFTISRDNAKYTVYLQMYSLKPEVTAVYYCAGTYVGSDGGDYWGQGTQVTVAS	low polyreactivity
QVQLVESGGGLVQAGGSLRLSCAASGSPFGSNAMGWYRQAPGKERELVAAISYGGDRTYYADSVKGRFTISRDNAKNTVYLQMISLKPEDTALYYCNARIYKGYNYWGQGTQVTVSS	high polyreactivity
QVQLVESGGGLVQAGGSLRLSCAASGSNFGSYTMGWSRQAPGKERELVAAISLGGGSTYYADSVKGRFTISRDNAKNTVYLQMNSLKPEDTAVYYCAAGFTDPYDYWGQGTQVTVSS	low polyreactivity
QVQLVESGGGLVQAGGSLRLSCAASGSIFYYNAMGWYRQAPGKERELVATIRTSGGSTYYADSVKGRFTISRDNAKNTVYLQMNSLKPVDTAVYYCAARDLRKLYSRYPYYYWGQGTQVTVSS	high polyreactivity
QVQLVESGGGLVQAGGSLRLSCAASRSTSPAYAMGWYRQAPGKERELVAVITGSGASTYYADSVKGRFTISRDNAKNTVYLQMNSLKPEDTAVYYCAADVGFGVVFYDYWGQGTQVTVSS	low polyreactivity
QVQLVESGGGLVQAGGSLRLSCAASGSTFAGNAMGWYRQAPGKERELVAASTFSGGRTDYADSVKGRFTISRDNAKNTVYLQMNSLNPEDSAVYYCAAPADDTVHYQNYYWGQGTQVTVSS	low polyreactivity
QVQLVESGGGLVQAGGSLRLSCAASGGIFVPYAMGWYRQAPGKERELVAGITSGGSTNYADSVKGRFTISRDNAKNTVYLQMNSLKPVDTAVYYCAARRRPGGRYKSRVWYDYWGQGTQVTVSS	high polyreactivity
QVQLVESGAGLVQAGGSLRLSCASSGRTCDFYAMGWYRQAPGKERELVAAISSSCGSTYYADSVKGRFTISRDNAKNTVYLQMNSLKPEDTAVYYCAKDGRVHSPYDYWGQGTQVTVSS	low polyreactivity
QVQLVESGGGLVQAGGSLRLSCAASGSIISYYAMGWYRQAPGKEWELVAAISWSGGSTYYADSVKGRFTISRDNAKNTVYLQRNSLTPEDTAVYYCAKYAYPRSRYTPYGSYDYWGQGTQVTVSS	high polyreactivity
QVQLVESGGGLVPAGGSLRLSWAASGRTFTRNAMGWYRQAPGKERELVAVITSSGRTNYADSVKGRVTISRDNAKNTVYLQMNSLKPEDTAVYYCNKVSARYPYPLYDYWGQGTQVTVSS	high polyreactivity
QVQLVESGGGLVQAGGSLRLSCAASGSIFYFYAMGWYRQAPGKERELVAAISWSGGSTYYADSVKGRFTISRDNAKNTVYLQMNSLKPEDTAVYYCNAADYWYWENDYWGQGTQVTVSS	low polyreactivity
QDQLVESGGGLVQAGGSLRLSCAASVSTFILNAMGWYRQAPGKERELVATISSSDTSTYYADSVKGRFTISRDNAKNTVYLQMNSLKPEDTAVYYCNADYYTTSYLQRVYHYGVEYDYWGQGTQVTVSS	low polyreactivity
QVQLVESGGGLVQAGGSLRLSCAASGIIFDTNDIGWYRLGPGKERELVATITQRGGTTYYADSVKGRFTISRDNATNTVYLQMNSLKPEDTAVYYCDADRRSKYDYWGQGTQVSVSS	low polyreactivity
QVQLVESGGGLVQAGGSLRLSCAASGRTFWYYAMGWYRQAPGKERELVAVINSSGGRTYYADSVKGRFTISRDNAKNTVYLQMNSLKPEDTAVYYCAAYRGVPSRYDYWGQGTQVTVSS	high polyreactivity
QDQHVESGGGLVQAGGSLRLSCAASGLIFNNYAMGWYRQAPGKERELVAPISRTGTSTYYADSVKGRFTISRDNAKNTVYLQMNSLKPEDTAVFYCNAVIQLFEWGWDDEYDYWGQGTQVTVSS	low polyreactivity
